The target in test [1] is T1, recombinant Q586B2 protein (Trypanosoma brucei brucei).
T1 chain: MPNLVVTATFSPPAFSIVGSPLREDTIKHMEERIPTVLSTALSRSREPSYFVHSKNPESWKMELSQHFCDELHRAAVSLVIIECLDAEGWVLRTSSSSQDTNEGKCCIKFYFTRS

Test [2] has as its target T2, native Q586B2 (Trypanosoma brucei brucei AnTat1.1E and …, UniProt Q586B2).
The target in test [3] is T3, homologous protein in T. cruzi (Trypanosoma cruzi (assayed strain not …, UniProt Q4D6Q6)).
T3 construct: protein of T. cruzi homologous to Q586B2, detected by Nb39; also called Q4D6Q6; source: endogenous, T. cruzi parasites, fixed and permeabilized
The test can be described thus: flow cytometry on cells; 5 µg HA-tagged Nb on 100 µl of 10^7/ml purified, fixed and permeabilized parasites, on ice 30 min; detected with Alexa Fluor 488 labeled anti-HA IgG. The conditions noted are these: one partner purified.

Test [4] has as its target T2, native Q586B2. Description: ELISA; sandwich ELISA: Nb39 coated at 5 µg/ml in PBS; culture medium of in vitro cultured parasites or serum of infected mice (day 6 p.i., diluted 1/2), 2 h at 37 °C; detected with biotinylated Nb39 and streptavidin-HRP. The following applies: one partner purified. (In general: ELISA stands for enzyme-linked immunosorbent assay.)

Where two headings read alike, the source gives them in different places.

The results in this text go back to paper PMC10899635, “Q586B2 is a crucial virulence factor during the early stages of Trypanosoma brucei infection that is conserved amongst trypanosomatids” (Nature Communications, 2024).

B1: Nb34 (VHH)
VHH: QVQLQESGGGLVQPGGSLRLSCAASGFTFSNSPMNWVRQAPGKGLEWVSAINSGGGSTYYADSVKGRFTISRDNAKNTLYLQMNSLKPEDTAVYYCAKGGRTYYSGSYYSWGMDYWGKGTQVTVSS
As for B1, the binding result (in test [1]; with native Q586B2 [2]) was “binds” in each case.

B2: Nb53 (VHH)
VHH: QVQLQESGGGSVQAGGSLRLSCSASGYTYSSHCTAWFRQAPGKEREALAAINSRSGTTYYADSVKGRFTISQDNTKNTAYLQMNSLKPEDTATYFCAALSFGCTGPLASLGQGTQVTVSS
For B2, the binding result (in test [1]; with native Q586B2 [2]) was “binds” in each case.

B3: Nb39 (VHH)
VHH: QVQLQESGGGLVQPGGSLRLSCTASGSIFSGYAMGWYRQAPGKQRELVAGITSGGSTIYAGSVKGRFTISRDNAKNTVYLQMNSLKPEDTAVYYCKNGTYYSARDYWGQGTQVTVSS
notes: nanobody from a llama immunized with recombinant Q586B2; A biotinylated Nb39 served as detecting agent in the sandwich ELISA; also called anti-Q586B2 Nb39; source: E. coli WK6, periplasmic extraction, purified (His-Trap IMAC, Superdex 75); not shown: HA, C-terminal, kept
B3: the binding result (in test [3]; with native Q586B2 [4]) was “binds” throughout.

B4: Nb41 (VHH)
VHH: QVQLQESGGGLVQAGGSLRLSCAASGRTFSSYAMGWFRQAPGKEREFIALISWIGGSTAYADSVKGRFTISRDNAKNTLYLQMNSLKPEDTAVYYCATDRIGRHRGPGTQVTVSS
Take B4: the binding result (in test [1]; with native Q586B2 [2]) was “binds” in each case.

B5: Nb58 (VHH)
VHH: QVQLQESGGGLVQPGGSLRLSCAASGRSISSIYAMGWYRQAPGKQRELVARLTSGGSSNYADSVKGRFTITRDNAQNTVYLQMNSLKPEDTAVYYCNAEPSRWWLDDDYWGQGTQVTVSS
As for B5, the binding result (in test [1]; with native Q586B2 [2]) was “binds” each time.

B6: Nb36 (VHH)
VHH: QVQLQESGGGLVQPGGSLRLSCAASGFAFSFYWMNWVRQAPGKGLEWVSAINSGGGSTYYADSVKGRFTISRDNAKNTLYLQMNSLKPEDTAVYYCAKGIVQRGEYYGMDYWGKGTQVTVSS
B6: the binding result (in test [1]; in the test with native Q586B2 [2]) was “binds” in each case.

B7: Nb32 (VHH)
VHH: QVQLQESGGGLVQPGGSLRLSCAASGFTFSAYAMSWVRQAPGKGLEWVSTIDSGGGSTYYADSVKGRFTISRDNAKKTLYLHMNSLKPEDTAVYYCAKRGYSDYARHVWGQGTQVTVSS
B7: the binding result (in test [1]; with native Q586B2 [2]) was “binds” each time.
